{
  "source": "patent US20250163169",
  "proteins": {"B1": {"name": "MMP2 (protein)", "chain": "YNFFPRKPKWDKNQITYRIIGYTPDLDPETVDDAFARAFQVWSDVTPLRFSRIHDGEADIMINFGRWEHGDGYPFDGKDGLLAHAFAPGTGVGGDSHFDDDELWTLGEGQVVRVKYGNADGEYCKFPFLFNGKEYNSCTDTGRSDGFLWCSTTYNFEKDGKYGFCPHEALFTMGGNAEGQPCKFPFRFQGTSYDSCTTEGRTDGYRWCGTTEDYDRDKKYGFCPETAMSTVGGNSEGAPCVFPFTFLGNKYESCTSAGRSDGKMWCATTANYDDDRKWGFCPDQGYSLFLVAAHEFGHAMGLEHSQDPGALMAPIYTYTKNFRLSQDDIKGIQELYGASPDIDLGTGPTPTLGPVTPEICKQDIVFDGIAQIRGEIFFFKDRFIWRTVTPRDKPMGPLLVATFWPELPEKIDAVYEAPQEEKAVFFAGNEYWIYSASTLERGYPKPLTSLGLPPDVQRVDAAFNWSKNKKTYIFAGDKFWRYNEVKKKMDPGFPKLIADAWNAIPDNLDAVVDLQGGGHSYFFKGAYYLKLENQSLKSVKFGSIKSDWLGC"}, "B2": {"name": "ADAM10 (protein)", "chain": "TTSAEKNTCQLYIQTDHLFFKYYGTREAVIAQISSHVKAIDTIYQTTDFSGIRNISFMVKRIRINTTADEKDPTNPFRFPNIGVEKFLELNSEQNHDDYCLAYVFTDRDFDDGVLGLAWVGAPSGSSGGICEKSKLYSDGKKKSLNTGIITVQNYGSHVPPKVSHITFAHEVGHNFGSPHDSGTECTPGESKNLGQKENGNYIMYARATSGDKLNNNKFSLCSIRNISQVLEKKRNNCFVESGQPICGNGMVEQGEECDCGYSDQCKDECCFDANQPEGRKCKLKPGKQCSPSQGPCCTAQCAFKSKSEKCRDDSDCAREGICNGFTALCPASDPKPNFTDCNRHTQVCINGQCAGSICEKYGLEECTCASSDGKDDKELCHVCCMKKMDPSTCASTGSVQWSRHFSGRTITLQPGSPCNDFRGYCDVFMRCRLVDADGPLARLKKAIFSPELYENIAE"}, "B3": {"name": "MMP7 (protein)", "chain": "YSLFPNSPKWTSKVVTYRIVSYTRDLPHITVDRLVSKALNMWGKEIPLHFRKVVWGTADIMIGFARGAHGDSYPFDGPGNTLAHAFAPGTGLGGDAHFDEDERWTDGSSLGINFLYAATHELGHSLGMGHSSDPNAVMYPTYGNGDPQNFKLSQDDIKGIQKLYGKRSNSRKK"}, "B4": {"name": "MMP12 (protein)", "chain": "GPVWRKHYITYRINNYTPDMNREDVDYAIRKAFQVWSNVTPLKFSKINTGMADILVVFARGAHGDFHAFDGKGGILAHAFGPGSGIGGDAHFDEDEFWTTHSGGTNLFLTAVHEIGHSLGLGHSSDPKAVMFPTYKYVDINTFRLSADDIRGIQSLYGDPKENQRLPNPDNSEPALCDPNLSFDAVTTVGNKIFFFKDRFFWLKVSERPKTSVNLISSLWPTLPSGIEAAYEIEARNQVFLFKDDKYWLISNLRPEPNYPKSIHSFGFPNFVKKIDAAVFNPRFYRTYFFVDNQYWRYDERRQMMDPGYPKLITKNFQGIGPKIDAVFYSKNKYYYFFQGSNQFEYDFLLQRITKTLKSNSWFGC"}},
  "key": {"[1]": {"target": "T1, 43-mer covering the stalk region of CD95L (residue 103 to residue 145)", "T1 chain": "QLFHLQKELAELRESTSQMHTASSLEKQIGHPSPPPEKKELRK"}, "[2]": {"target": "T2, Recombinant Ig-CD95L", "T2 chain": "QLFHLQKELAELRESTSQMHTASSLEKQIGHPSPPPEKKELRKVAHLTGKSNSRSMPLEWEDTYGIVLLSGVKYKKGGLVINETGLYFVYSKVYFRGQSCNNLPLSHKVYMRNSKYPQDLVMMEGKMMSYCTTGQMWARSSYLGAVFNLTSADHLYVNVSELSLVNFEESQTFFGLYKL"}},
  "data": [
    {"protein": "B1", "values": [
      {"measurement": "percentage of degradation of the 43-mer (LC-MS/MS)", "setting": "[1]", "value": "more of 20% of cleavage"},
      {"measurement": "cleavage of Ig-CD95L (western blotting)", "setting": "[2]", "value": "Using this Ig-CD95L, we showed that MMP2 and MMP3 can cleave CD95L"}
    ]},
    {"protein": "B2", "values": [
      {"measurement": "percentage of degradation of the 43-mer (LC-MS/MS)", "setting": "[1]", "value": "more of 20% of cleavage"}
    ]},
    {"protein": "B3", "values": [
      {"measurement": "percentage of degradation of the 43-mer (LC-MS/MS)", "setting": "[1]", "value": "more of 20% of cleavage"}
    ]},
    {"protein": "B4", "values": [
      {"measurement": "percentage of degradation of the 43-mer (LC-MS/MS)", "setting": "[1]", "value": "more of 20% of cleavage"}
    ]}
  ]
}
